Experiment: soluble on expression in E. coli; label from the status in PepcDB or PDB records

Row | Sequence | soluble on expression in E. coli
1 | MGSDKIHHHHHHMTKNARQTALDVLNDIFGNDAYANISLDRNLRDSELSTVDKAFVTALVYGVVSKKDLLEWHITPFLKKEPKPWAKMLLLLTVYQILFMDKVPTSAAVDEAVKIAKRRDGQATANFINAVLRNFMRSEHRNEEPKDWETKYSMPKLLLDKMVRQFGGKRTGEILESLEKPSHVSLRKIDPTVEISGTRASLLTESALIADSGNFAMTEEFQSGRITIQDETSQLVAPQLDLEGTEEVLDACAAPGGKSTHMAQYLTIGHITALDLYDHKLDLINQNAERQHVADKITTQKADATMIFEEFGSDKFDRILVDAPCSGIGLIRRKPDIRYRKESSDFVDLQKIQLEILNSASKSLKKSGIMVYSTCTIFDEENFDVVRQFLESHPNFEQVEISSDKADMIKEGCIFITPEMYHTDGFFIAKFKKIGE | not soluble
2 | MGSDKIHHHHHHMLHIVNNLRDSFTPGTPHQAALAQIFPQDSEKQTMDKRDLSAIFRERLKLLLTRSDLNQSAFASAVGIDRSALSQLMSGASTRLPRAETLLNIAAEFKVSLDWLLGLSQDEGVTGEIRESLEIEEAPDGFDRTLLAKWFAEAAGTKIRYVPAGIPDLLRTRALVDYEANITNRSRLAQASETQYRIEYNRRPETDMEVCMPRHTLEIFARGLGVWDRFPEADRRQQLAHMATLLDDLYPTFRLFLYDGRMRYSIPLTIFGPYRAAIYVGDMYVVLNATQPVQALTQHFDNLIRAADVNPHEAAAFARNLAGMSFPSGSV | not soluble
3 | MNTKLTKIISGLFVATAAFQTASAGNITDIKVSSLPNKQKIVKVSFDKEIVNPTGFVTSSPARIALDFEQTGISMDQQVLEYADPLLSKISAAQNSSRARLVLNLNKPGQYNTEVRGNKVWIFINESDDTVSAPARPAVKAAPAAPAKQQAAAPFTESVVSVSAPFSPAKQQAAASAKQTNIDFRKDGKNAGIIELAALGFAGQPDISQQHDHIIVTLKNHTLPTALQRSLDVADFKTPVQKVTLKRLNNDTQLIITTTGNWELVNKSAAPGYFTFQVLPKKQNLESGGVNNAPKTFTGRKISLDFQDVEIRTILQILAKESGMNIVASDSVSGKMTLSLKDVPWDQALDLVMQARNLDMRQQGNIVNIAPRDELLAKDKAFLQAEKDIADLGALYSQNFQLKYKNVEEFRSILRLDNADTTGNRNTLVSGRGSVLIDPATNTLIVTDTRSVIEKFRKLIDELDVPAQQVMIEARIVEAADGFSRDLGVKFGATGRKKLKNETSAFGWGVNSGFGGGDKWEAQTKINLPVAAAANSISLVRAISSGALNLELSASESLSKTKTLANPRVLTQNRKEAKIESGYEIPFTVTTASGGGNSTNTELKKAVLGLTVTPNITPDGQIIMTVKINKDSPAQCASGNNTILCISTKSLNTQAMVENGGTLIVGGIYEENNGNTLTKVPLLGDIPVIGNLFKTRGKKTDRRELLIFITPRIIDTAGNSLRY | not soluble
4 | STVTQKNLFPYGDYLNSSQLHMEPDEVDTLREGEDPADRMHPYLAIYDLQPLKAHPLVFAPGVPVIAQVVGTERYTSGSKVGTCTLYSVRLTHGDFTWTTKKKFRHFQELHRDLQRHKVLMSLLPLARFAVTHSPAREAAAEDIPSLPRGGSEGSARHTASKQKYLENYLNRLLTMSFYRNYHAMTEFLEVSQLSFIPDLGSKGLEGVIRKRSGGHRVPGFTFCGRDQVCYRWSKRWLVVKDSFLLYMRPETGAISFVQLFDPGFEVQVGKRSTETRYGVRIDTSHRSLILKCSSYRQARWWGQEITELAQGSGRDFLQLHQHDSYAPPRPGTLARW | soluble
5 | MTSSDLPVMLFAAGFGTRMGDLTRTRPKPLIEVAGRPLVDHTLDLARAVSPPRIVANLHYLAPLLAAHLAPQGVLLSHEQPDILDTGGGLRQALPLLAAETVFTANSDAIWSGPNPFALLAEAWEPARMDALLMCVPVGQAIGHAGHGDFSRDAQGRIERGPGLIYGGVQIVKTGGLGDFDMPAFSLNLLWNRIGAAGRLFALEYPGRWCDVGHPGGIALAEEMLRDVLEHHHHHH | soluble
6 | MGSDKIHHHHHHMLDSYIKRIVIHQFSPNDTELLLSDRLVSITPRIDEYFRKKLAKVFSDEAKRGQFEANNTFFTTIGDDLLETSVTIAQLWKEAFVISEDQKTNDLVFVQFDKDGEPFFAFLRIALKEQFAHLSDNYEHPFTVTQNNLPSPTQTPDEALVINLKSGQYYLIEKRVKHNGSFANYFSEHLLKVTPEQSVKKSIKMIEQTAQKIAEHFNQDDFTFQSKMKSTLFKQLEADDVLSPEKLADQLFDDNLTARLTFVDQVKDVIPEPIKISDIEHSRQIKKLENQKLSLSNGIELTVPNAIYQDAEAVEFLLNDDGTYSILIKNIEDIKTK | not soluble
7 | MGSDKIHHHHHHMLQNPIHLRLERLESWQHVTFMACLCERMYPNYAMFCQQTGFGDGQIYRRILDLIWETLTVKDAKVNFDSQLEKFEEAIPSADDFDLYGVYPAIDACVALSELVHSRLSGETLEHAVEVSKTSITTVAMLEMTQAGREMSDEELKENPAVEQEWDIQWEIFRLLAECEERDIELIKGLRADLREAGESNIGIIFQQ | not soluble
8 | MTARDFLEFRERLAPASGFQSAQLREIEILLGLEDTQRISIGNGCSYRDALKLPGGAPSSSAQRVEARAADGPSFKHCLYDWLSRVPIDGSNAPADITRFLEAYLASLRAENDRRLKLASSGLAAAEIEQLRARYAAEDAGAQAFLLAEDDPQASDAERETRRAGRAAMLFIESYRELPQLAWPHALLESVLELEQAMLIWRQRHARMVERFIGRRIGTGGSSGVDYLDQTARYRIFTELWTVRSLLLRKAAVPQIRSSAGYGFVMEGFALEHHHHHH | not soluble
9 | MATSAEVSQRVLAYLVEQLGVDVSFLRHNDRDRRATRLVAEWPPRLNIPDPDPLRLIYFADADPVFALCEHAKEPLVFRPEPATEDYQRLIEEARGVPVTSAAAVPLVSGEITTGLLGFIKFGDRKWHEAELNALMTIATLFAQVQARVAAEARLRYLADHDDLEHHHHHH | not soluble
10 | SQNRVPSSRTVSYFVAKPSSSEMEKLQLGPEDSILRMERIRFADDIPICFEVASIPYSLVSQYGKSEITNSFYKTLEAKSGHKIGHSNQTISAVQASEQIAEYLEIKRGDAILRVRQVSYFENGLPFEYVRTQYAGSRFEFYLEK | soluble
11 | MVIRYDKAFIKDFKETDEGYLTITACPITRPGVFPYRRTDGGLSMEAKLPDELFSKATVLSANAKPMTDDHPTEPVTAANYNKYSKGMTHNDAHVLDNKLLVSFTITDAETIKKINDGKRELSIGFQADVSKETGVYNGMQYDSVQRNMQINHIAIVDEGRAGPEVAIRGDSVAFMIDTKDKQTGGNGMSKLIIDSKEFEVDSIVKAKFESLEAKLDAAEQRKANVEKLEGERDALKAQIDKLNKEIDEAKKKEVTADALDKRVQDRVDLINKAQKFLGDSVDFTGKSDREIKESVIAKTSPDFKGDGKSDDYIAAYFDSAVANVEKKGFTNPAAFNDAKDKDKEAAEDIEKQKNNRLNMNKKEDK | not soluble
12 | SPEWPPCLSVAPALVITMAAGKGAPLSPSAENRWRLSEPELGRGCKPVLLEKTNRLGPEAAVGRAGRDVGSAELALLVAPGKPRPGKPLPPKTRGEQRQSAFTELPRMKDRQVDAQAQEREHDDPTGQPGAPQLTQNIPRGPAGSKVFSVWPSGARSEQRSAFSKPTKRPAERPELTSVFPAGESADALGELSGLLNTTDLACWGRLSTPKLLVGDLWNLQALPQNAPLCSTFLGAPTLWLEHTQAQVPPPSSSSTTSWALLPPTLTSLGLSTQNWCAKCNLSFRLTSDLVFHMRSHHKKEHAGPDPHSQKRREEALACPVCQEHFRERHHLSRHMTSHS | soluble
13 | MDLASLRAQQIELASSVICEDRLDKDPPDLIAGADVGFEQGGEVTRAAMVLLKYPSLELVEYKVARIATTMPYIPGFLSFREYPALLAAWEMLSQKPDLVFVDGHGISHPRRLGVASHFGLLVDVPTIGVAKKRLCGKFEPLSSKPGALAPLMDKGEQLAWVWRSKARCNPLFIATGHRVSVDSALAWVQRCMKGYRLPEPTRWADAVASERPAFVRYTANQPLEHHHHHH | not soluble
14 | MGSSHHHHHHSSGLVPRGSHMSGSGSGSGTALTPSYLKDDDGRSLILRGFNTASSAKSAPDGMPQFTEADLAREYADMGTNFVRFLISWRSVEPAPGVYDQQYLDRVEDRVGWYAERGYKVMLDMHQDVYSGAITPEGNSGNGAGAIGNGAPAWATYMDGLPVEPQPRWELYYIQPGVMRAFDNFWNTTGKHPELVEHYAKAWRAVADRFADNDAVVAYDLMNEPFGGSLQGPAFEAGPLAAMYQRTTDAIRQVDQDTWVCVAPQAIGVNQGLPSGLTKIDDPRAGQQRIAYCPHLYPLPLDIGDGHEGLARTLTDVTIDAWRANTAHTARVLGDVPIILGEFGLDTTLPGARDYIERVYGTAREMGAGVSYWSSDPGPWGPYLPDGTQTLLVDTLNKPYPRAVAGTPTEWSSTSDRLQLTIEPDAAITAPTEIYLPEAGFPGDVHVEGADVVGWDRQSRLLTVRTPADSGNVTVTVTPAA | soluble
15 | MSLSSAPDIILHRGLFTTLDRSNPAASAVAIADGRFVAVGHDHDVMKLAGPSTKIVDLRGRRVLPGLIDNHLHIIRGGLNFNMELRWDGVRSLATAMDMLKRQVAVTPPPQWVRVVGGFTEHQFAEKRLPTIDELNAVAPDTPVFLLHLYDRAILNGAALRAVGYAKDTPEPPGGEIMRDTKGNPTGLLLAKPNANILYATLAKGPKLPFDYQVNSTRHFMRELNRLGVTGAIDAGGGFQNYPDDYAVIQKLSDEGLLTIRLAYNLFTQKPKGEKADFLNWTKTSKYKQGDDYFRHNGAGEMLVFSAADFEDFRVARPDMPAEMEGELEEVVRVLVQNKWPWRLHATYDETISRALDVFERVNQDIPLEGLHWFFDHAETISDQSIDRIAALGGGIAVQHRMAYQGEYFVERYGAGAAEATPPVKKIIDKGVKVSAGTDATRVASYNPWVSLSWLVTGRTVGGLRITPQRNCLDRETALRMWTENVTWFSNEEGNKGRIQVGQLADLVVPDRDYFSCSEAEIADTTSLLTMVGGRIVYGAGDFSKLESVTPPPAMPDWSPVRRFGGYAAWADDTAKTKDTSLAMKAMQMCGCANSCGVHGHDHAAAWSSRLPVSDLRSFWGALGCACWAVEGHHHHHH | not soluble
16 | MGSDKIHHHHHHMKNLLDLSYEELVTEITNLGLERYRADQILDWVFDKKVNNFDEMTNLSKKHRALLKEHFSISFLKLLDKKVSRIDGTTKFLWELEDGNTIESVMLFHPDRITACISTQVGCPVKCIFCATGMSGFVRNLTTGEIVAQILSMEKEEKKKIGNVVYMGMGEPLLNYENTIKSIRILNHKKMGNIGIRRITISTVGIPDRIIQLAEEGLDVKLALSLHAPTNFKRDQLVPLNKKYSIEEILNAVKIYQRKTGNRVTIEYVLIRGINDEISDAKKLAEILRNMKVFVNLIPVNPTVEGLRRPSRERLLTFKRILLENGIEAEIRREKGTDIEAACGQLRLKRIKSRS | not soluble
17 | MEYSQIPSFAFYNNASIFQFFPRNKRLNTHQKSCLDEHARKMAVFMMERQEEYRYYENLANQEQFSDDACFSDTGMDSGFCSGATSTGQSASTSPAPAHLIPNPFFDPEYVAKAQSPVKLVANPFYNPELVKEIKKKSRVSV | not soluble
18 | MEQQQRYISVLDIGTSKVLALIGEVQDDDKINIVGLGQAPSRGLRAGMVTNIDATVQAIRQAVNDAELMADTKITHVTTGIAGNHIRSLNSQGVVKIKDGEVTQADIDRAIETAKAINIPPDQKILDAVVQDYIIDTQLGVREPIGMSGVRLDTRVHIITGASTAVQNVQKCIERCGLKSD | not soluble
19 | MGSDKIHHHHHHAHTRAIDNIANSGDMVTMSGTVKLYAKTAQDGGVVNTLTLQVSDFTGLDTGTGSKTVEISGAATYIEVEGNIDGSATKTDDVNSRQGGVTSDAVRVVGGAAIVTGGSTSTCSIEVAPEMARVEVKGDLGSSFTNLAELKVKGIYLNNVKQKRADAAVVKTTKASAPDWTTAYTAGGTKSNLYNTFIGTPITKFDSGKADGYNFFPQDFHIASLSAAATTKEEAAKYHPHVIMEVEYKMNGVGALSKTGWLNVVALKDNTSSSYIGEFANGKVYQLDLADIKKIMDVPVPPVTVDPDPDAVNVDVTVTVKGWELVFIKPEV | not soluble

— the DeepSol protein solubility set
